According to PMC9061262, “Structural basis of the strict specificity of a bacterial GH31 α-1,3-glucosidase for nigerooligosaccharides” (The Journal of Biological Chemistry, 2022):
One block for each molecule: values may come before it.

Legend:
[1] = molecular target: GH31_u1 protein from Lactococcus lactis subsp. cremoris MG1363 (LlGH31_u1), wild type (Lactococcus lactis subsp. cremoris MG1363); experiment: SEC; gel filtration on HiLoad 16/60 Superdex 200 prep grade for molecular weight determination; 20 mM sodium phosphate buffer (pH 7.0), 300 mM NaCl
[2] = molecular target: GH31_u1 protein from Lactococcus lactis subsp. cremoris MG1363 (LlGH31_u1), wild type (Lactococcus lactis subsp. cremoris MG1363); experiment: crystal structure; hanging-drop vapor diffusion at 20 °C, PEG 3350, sodium citrate pH 7.0; crystal form 1 (P2_(1), six molecules in the asymmetric unit) and crystal form 2 (P6_(3)22, one molecule, hexamer by symmetry); unliganded, glucose-soaked or cocrystallised with 10 mM ligands
[3] = molecular target: GH31_u1 protein from Lactococcus lactis subsp. cremoris MG1363 (LlGH31_u1), wild type (Lactococcus lactis subsp. cremoris MG1363); experiment: cryo-EM structure; single-particle analysis; 1.13 μM (as a hexamer) in 20 mM sodium phosphate buffer (pH 7.0), 300 mM NaCl
[4] = tested on: O=[N+]([O-])c1ccc(O[C@H]2O[C@H](CO)[C@@H](O)[C@H](O)[C@H]2O)cc1; experiment: purified protein; conditions: 50 mM sodium phosphate pH 7.0, 50 mM NaCl
[5] = molecular target: T1, LlGH31_u1 (Lactococcus cremoris, UniProt A2RM80); experiment: X-ray crystal structure of complex (soaked); format: binding; conditions: 100 mM glucose soak, 45 min; subsite −1; both α- and β-anomers modelled
T1 construct: gene xylS; full length (no signal peptide), N-terminal His tag, pET28a, E. coli BL21(DE3); Tyr99 of the adjacent protomer reaches the active site
T1 sequence (A2RM80 1-739): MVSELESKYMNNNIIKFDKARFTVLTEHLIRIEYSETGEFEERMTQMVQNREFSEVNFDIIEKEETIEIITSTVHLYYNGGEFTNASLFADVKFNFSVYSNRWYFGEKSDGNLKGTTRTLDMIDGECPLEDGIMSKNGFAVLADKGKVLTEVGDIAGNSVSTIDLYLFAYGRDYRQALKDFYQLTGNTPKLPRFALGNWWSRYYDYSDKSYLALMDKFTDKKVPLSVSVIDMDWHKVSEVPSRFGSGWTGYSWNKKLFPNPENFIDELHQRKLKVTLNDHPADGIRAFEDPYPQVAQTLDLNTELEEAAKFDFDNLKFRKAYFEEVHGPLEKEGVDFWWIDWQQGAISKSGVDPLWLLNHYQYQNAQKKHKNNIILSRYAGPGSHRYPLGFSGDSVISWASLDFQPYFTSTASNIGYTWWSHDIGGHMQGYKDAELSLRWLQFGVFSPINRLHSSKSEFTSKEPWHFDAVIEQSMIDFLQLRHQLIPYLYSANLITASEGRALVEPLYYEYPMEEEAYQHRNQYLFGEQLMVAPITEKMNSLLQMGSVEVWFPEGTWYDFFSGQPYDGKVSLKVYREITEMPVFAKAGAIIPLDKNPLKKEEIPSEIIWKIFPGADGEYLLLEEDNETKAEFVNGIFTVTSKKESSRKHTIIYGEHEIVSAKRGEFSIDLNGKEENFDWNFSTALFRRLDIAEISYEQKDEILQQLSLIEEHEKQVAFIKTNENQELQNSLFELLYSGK

[6] = substrate: O=[N+]([O-])c1ccc(O[C@H]2O[C@H](CO)[C@@H](O)[C@H](O)[C@H]2O)cc1; experiment: purified protein; conditions: 50 mM sodium phosphate pH 7.0, 50 mM NaCl; remark: listed apart in the source

stoichiometry N [1]: 6 | stoichiometry N [2]: 6 | stoichiometry N [3]: 6
Molecule: GH31_u1 protein from Lactococcus lactis subsp. cremoris MG1363 (LlGH31_u1), wild type (enzyme)

Molecule: LlGH31_u1 (Lactococcus cremoris subsp. cremoris MG1363; Y99F)
Km [4]: 28 ± 0.8 mM

Molecule: OC[C@H]1OC(O)[C@H](O)[C@@H](O)[C@@H]1O (some centres unmarked) [glucose]
X-ray crystal structure of complex (soaked) [5]: we determined the crystal structure of WT in complex with glucose (WT-Glc)

B1: LlGH31_u1 (Lactococcus cremoris subsp. cremoris MG1363) (protein)
chain: T1 sequence (A2RM80 1-739)
Km [6]: 20 ± 0.8 mM | kcat [6]: 31 s⁻¹ | kcat/Km [6]: 1500 M⁻¹ s⁻¹
